Laboratory results as given in patent US20230220035A1 (DONG-A ST CO., LTD., published 2023).
*1 amine or outer side, *2 acyl side, *3 side chain or, on linkers, in order; H or OH if unused. Side-chain parts run from the residue outwards. [ ]: non-standard residue; d: D form. The star is where a group is joined. C18 diacid = O=C(O)CCCCCCCCCCCCCCCCC(=O)*; γGlu = O=C(O)[C@H](CCC(=O)[*:2])N[*:1]; C14 diacid = O=C(O)CCCCCCCCCCCCC(=O)*; Stearoyl = CCCCCCCCCCCCCCCCCC(=O)*; AEEA = NCCOCCOCC(=O)O; Aib = CC(C)(N)C(=O)O

How the values were obtained:
[1] = target: GLP-1 receptor (Homo sapiens, UniProt P43220); experiment: Human GLP-1 receptor activation assay (CRE-luciferase); type: cell-based; parameters: host or cells: CHO-K1
Description: (§1) Then, the resulting increased luciferase activity was evaluated as a measurement of the effect on each receptor activation.
(§2) For positive control, endogenous ligand GLP-1 or glucagon was used for respective evaluation. The above-mentioned acylated oxyntomodulin peptide analogs of Comparative Example 8-12 were synthesized and used as comparative examples.
(§3) After 3 hours of transfection, medium was exchanged to Alpha Minimal Essential Medium (α-MEM) comprising 10% fetal bovine serum (FBS). Next day, the medium was exchanged to α-MEM comprising the acylated oxyntomodulin peptide analog of the present invention and 0.1% bovine serum albumin (BSA). After 6 hours, dual luciferase assay reagent (Promega) was added in the same amount as the medium in which the cells were submerged, and firefly luciferase and Renilla luciferase activities were successively measured. Firefly luciferase activity values were corrected against Renilla luciferase activity to yield transfection efficiency.

[2] = in vivo; conditions: cynomolgus monkey, sc
Description: Cynomolgus monkeys were used to evaluate the pharmacokinetics in monkeys of the acylated oxyntomodulin peptide analogs according to the present invention.

[3] = target: glucagon receptor (Homo sapiens, UniProt P47871); experiment: Human glucagon receptor activation assay (CRE-luciferase); type: cell-based; parameters: host or cells: CHO-K1; conditions: CHO-K1 cells transiently transfected
Description: as §1, §2, §3

[4] = target: Human GLP-1 receptor (human, UniProt P43220); experiment: cell-based or functional assay
[5] = target: Human glucagon receptor (human, UniProt P47871); experiment: cell-based or functional assay

Sequence of glucagon receptor (P47871 26-477): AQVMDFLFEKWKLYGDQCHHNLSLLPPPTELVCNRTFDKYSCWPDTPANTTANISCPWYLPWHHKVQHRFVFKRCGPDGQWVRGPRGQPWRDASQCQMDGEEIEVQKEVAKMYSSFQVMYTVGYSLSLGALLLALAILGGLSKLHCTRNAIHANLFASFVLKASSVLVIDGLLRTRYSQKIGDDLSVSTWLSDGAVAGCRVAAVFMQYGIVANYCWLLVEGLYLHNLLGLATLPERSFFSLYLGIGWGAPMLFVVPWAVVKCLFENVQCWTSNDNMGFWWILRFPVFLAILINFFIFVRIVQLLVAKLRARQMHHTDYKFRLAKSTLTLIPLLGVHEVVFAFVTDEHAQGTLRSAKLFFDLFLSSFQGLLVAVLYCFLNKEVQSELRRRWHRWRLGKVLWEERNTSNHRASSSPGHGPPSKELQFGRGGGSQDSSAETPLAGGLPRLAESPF
Sequence of GLP-1 receptor (P43220 24-463): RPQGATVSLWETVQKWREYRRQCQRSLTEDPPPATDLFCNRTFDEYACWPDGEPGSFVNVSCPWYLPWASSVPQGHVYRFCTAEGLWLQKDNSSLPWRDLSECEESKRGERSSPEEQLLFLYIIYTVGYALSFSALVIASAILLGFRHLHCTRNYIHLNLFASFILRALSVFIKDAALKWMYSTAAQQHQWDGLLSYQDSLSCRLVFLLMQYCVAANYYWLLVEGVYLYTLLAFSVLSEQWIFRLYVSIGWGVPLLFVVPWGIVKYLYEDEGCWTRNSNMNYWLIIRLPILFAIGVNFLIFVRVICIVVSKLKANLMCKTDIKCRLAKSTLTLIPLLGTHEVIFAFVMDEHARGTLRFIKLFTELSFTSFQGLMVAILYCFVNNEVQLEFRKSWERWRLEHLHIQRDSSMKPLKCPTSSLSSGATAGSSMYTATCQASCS

| Molecule | Maximum activation (% vs GLP-1) [4] [%] | Maximum activation (% vs GCG) [5] [%] | EC50 [5] [nM] | other results |
| --- | --- | --- | --- | --- |
| CCCCCCCCCCCCCCCCCC(=O)N[C@@H](CCC(=O)NCCOCCOCC(=O)NCCOCCOCC(=O)NCCCC[C@H](NC(=O)[C@H](CC(=O)O)NC(=O)[C@H](CO)NC(=O)[C@@H](NC(=O)[C@H](Cc1ccccc1)NC(=O)[C@@H](NC(=O)CNC(=O)[C@H](CCC(N)=O)NC(=O)C(C)(C)NC(=O)[C@@H](N)Cc1c[nH]cn1)[C@@H](C)O)[C@@H](C)O)C(=O)N[C@@H](CO)C(=O)N[C@@H](CCCCN)C(=O)N[C@@H](Cc1ccc(O)cc1)C(=O)N[C@@H](CC(C)C)C(=O)N[C@@H](CC(=O)O)C(=O)NC(C)(C)C(=O)N[C@@H](CCCNC(=N)N)C(=O)N[C@@H](CCCNC(=N)N)C(=O)N[C@@H](C)C(=O)N[C@@H](CCC(N)=O)C(=O)N[C@@H](CC(=O)O)C(=O)N[C@@H](Cc1ccccc1)C(=O)N[C@H](C(=O)N[C@@H](CCC(N)=O)C(=O)N[C@@H](Cc1c[nH]c2ccccc12)C(=O)N[C@@H](CC(C)C)C(=O)N[C@@H](CCSC)C(=O)N[C@@H](CC(N)=O)C(=O)N[C@H](C(=O)N[C@@H](CCCCN)C(=O)N[C@@H](CCC(=O)O)C(=O)N[C@@H](Cc1ccc(O)cc1)C(=O)N[C@@H](CCC(=O)O)C(=O)N[C@@H](CCCCNC(=O)COCCOCCNC(=O)COCCOCCNC(=O)COCCOCCNC(=O)CCCCCCCCCCCCCCC)C(=O)N[C@@H](CCC(=O)O)C(=O)N[C@@H](Cc1ccc(O)cc1)C(=O)N[C@@H](CCC(=O)O)C(=O)O)[C@@H](C)O)C(C)C)C(=O)O [Compound 12] | – | – | – | Emax ([1]; CHO-K1, 6 h, read-out: GLP-1 receptor Maximum activation (% vs GLP-1)): 102%; EC50 ([1]; CHO-K1 cells transiently transfected, luciferase, 6 hours, 0.1% BSA): < 0.1 nM; half-life ([2]; Monkey PK (S.C. half-life)): 6 to 12 h; half-life ([2]; monkey PK half-life): < 12 h; Emax ([3]; 6 h, relative to glucagon, read-out: GCG receptor Maximum activation (% vs GCG)): 89.6%; EC50 ([3]; 6 hours, 0.1% BSA, read-out: GCG receptor EC50): < 0.1 nM |
| H-H[Aib]QGTFTSDK([AEEA-AEEA-γGlu-Stearoyl])SKYLD[Aib]RRAQDFVQWLMNTKEYEK([Lys-AEEA-AEEA-AEEA-γGlu-C18 diacid])EYE-OH [Compound 6] | 83.8 | 89.1 | – | – |
| H-H[Aib]QGTFTSDK([AEEA-AEEA-γGlu-Stearoyl])SKYLD[Aib]RRAQDFVQWLMNTKEYEK(C14 diacid)EYE-OH (SMILES CCCCCCCCCCCCCCCCCC(=O)N[C@@H](CCC(=O)NCCOCCOCC(=O)NCCOCCOCC(=O)NCCCC[C@H](NC(=O)[C@H](CC(=O)O)NC(=O)[C@H](CO)NC(=O)[C@@H](NC(=O)[C@H](Cc1ccccc1)NC(=O)[C@@H](NC(=O)CNC(=O)[C@H](CCC(N)=O)NC(=O)C(C)(C)NC(=O)[C@@H](N)Cc1c[nH]cn1)[C@@H](C)O)[C@@H](C)O)C(=O)N[C@@H](CO)C(=O)N[C@@H](CCCCN)C(=O)N[C@@H](Cc1ccc(O)cc1)C(=O)N[C@@H](CC(C)C)C(=O)N[C@@H](CC(=O)O)C(=O)NC(C)(C)C(=O)N[C@@H](CCCNC(=N)N)C(=O)N[C@@H](CCCNC(=N)N)C(=O)N[C@@H](C)C(=O)N[C@@H](CCC(N)=O)C(=O)N[C@@H](CC(=O)O)C(=O)N[C@@H](Cc1ccccc1)C(=O)N[C@H](C(=O)N[C@@H](CCC(N)=O)C(=O)N[C@@H](Cc1c[nH]c2ccccc12)C(=O)N[C@@H](CC(C)C)C(=O)N[C@@H](CCSC)C(=O)N[C@@H](CC(N)=O)C(=O)N[C@H](C(=O)N[C@@H](CCCCN)C(=O)N[C@@H](CCC(=O)O)C(=O)N[C@@H](Cc1ccc(O)cc1)C(=O)N[C@@H](CCC(=O)O)C(=O)N[C@@H](CCCCNC(=O)CCCCCCCCCCCCC(=O)O)C(=O)N[C@@H](CCC(=O)O)C(=O)N[C@@H](Cc1ccc(O)cc1)C(=O)N[C@@H](CCC(=O)O)C(=O)O)[C@@H](C)O)C(C)C)C(=O)O) [Compound 1] | 102 | 107 | < 0.1 | EC50 [4]: < 0.1 nM |
| H-H[Aib]QGTFTSDK([AEEA-AEEA-γGlu-Stearoyl])SKYLD[Aib]RRAQDFVQWLMNTKEYEK([AEEA-AEEA-AEEA-γGlu-C18 diacid])EYE-OH (SMILES CCCCCCCCCCCCCCCCCC(=O)N[C@@H](CCC(=O)NCCOCCOCC(=O)NCCOCCOCC(=O)NCCCC[C@H](NC(=O)[C@H](CC(=O)O)NC(=O)[C@H](CO)NC(=O)[C@@H](NC(=O)[C@H](Cc1ccccc1)NC(=O)[C@@H](NC(=O)CNC(=O)[C@H](CCC(N)=O)NC(=O)C(C)(C)NC(=O)[C@@H](N)Cc1c[nH]cn1)[C@@H](C)O)[C@@H](C)O)C(=O)N[C@@H](CO)C(=O)N[C@@H](CCCCN)C(=O)N[C@@H](Cc1ccc(O)cc1)C(=O)N[C@@H](CC(C)C)C(=O)N[C@@H](CC(=O)O)C(=O)NC(C)(C)C(=O)N[C@@H](CCCNC(=N)N)C(=O)N[C@@H](CCCNC(=N)N)C(=O)N[C@@H](C)C(=O)N[C@@H](CCC(N)=O)C(=O)N[C@@H](CC(=O)O)C(=O)N[C@@H](Cc1ccccc1)C(=O)N[C@H](C(=O)N[C@@H](CCC(N)=O)C(=O)N[C@@H](Cc1c[nH]c2ccccc12)C(=O)N[C@@H](CC(C)C)C(=O)N[C@@H](CCSC)C(=O)N[C@@H](CC(N)=O)C(=O)N[C@H](C(=O)N[C@@H](CCCCN)C(=O)N[C@@H](CCC(=O)O)C(=O)N[C@@H](Cc1ccc(O)cc1)C(=O)N[C@@H](CCC(=O)O)C(=O)N[C@@H](CCCCNC(=O)COCCOCCNC(=O)COCCOCCNC(=O)COCCOCCNC(=O)CC[C@H](NC(=O)CCCCCCCCCCCCCCCCC(=O)O)C(=O)O)C(=O)N[C@@H](CCC(=O)O)C(=O)N[C@@H](Cc1ccc(O)cc1)C(=O)N[C@@H](CCC(=O)O)C(=O)O)[C@@H](C)O)C(C)C)C(=O)O) [Compound 5] | 93.6 | 99.4 | – | – |
| H-H[Aib]QGTFTSDK([AEEA-AEEA-γGlu-Stearoyl])SKYLD[Aib]RRAQDFVQWLMNTKEYEK(C18 diacid)EYE-OH (SMILES CCCCCCCCCCCCCCCCCC(=O)N[C@@H](CCC(=O)NCCOCCOCC(=O)NCCOCCOCC(=O)NCCCC[C@H](NC(=O)[C@H](CC(=O)O)NC(=O)[C@H](CO)NC(=O)[C@@H](NC(=O)[C@H](Cc1ccccc1)NC(=O)[C@@H](NC(=O)CNC(=O)[C@H](CCC(N)=O)NC(=O)C(C)(C)NC(=O)[C@@H](N)Cc1c[nH]cn1)[C@@H](C)O)[C@@H](C)O)C(=O)N[C@@H](CO)C(=O)N[C@@H](CCCCN)C(=O)N[C@@H](Cc1ccc(O)cc1)C(=O)N[C@@H](CC(C)C)C(=O)N[C@@H](CC(=O)O)C(=O)NC(C)(C)C(=O)N[C@@H](CCCNC(=N)N)C(=O)N[C@@H](CCCNC(=N)N)C(=O)N[C@@H](C)C(=O)N[C@@H](CCC(N)=O)C(=O)N[C@@H](CC(=O)O)C(=O)N[C@@H](Cc1ccccc1)C(=O)N[C@H](C(=O)N[C@@H](CCC(N)=O)C(=O)N[C@@H](Cc1c[nH]c2ccccc12)C(=O)N[C@@H](CC(C)C)C(=O)N[C@@H](CCSC)C(=O)N[C@@H](CC(N)=O)C(=O)N[C@H](C(=O)N[C@@H](CCCCN)C(=O)N[C@@H](CCC(=O)O)C(=O)N[C@@H](Cc1ccc(O)cc1)C(=O)N[C@@H](CCC(=O)O)C(=O)N[C@@H](CCCCNC(=O)CCCCCCCCCCCCCCCCC(=O)O)C(=O)N[C@@H](CCC(=O)O)C(=O)N[C@@H](Cc1ccc(O)cc1)C(=O)N[C@@H](CCC(=O)O)C(=O)O)[C@@H](C)O)C(C)C)C(=O)O) [Compound 3] | 98.3 | 98.3 | – | – |
| H-H[Aib]QGTFTSDK([AEEA-AEEA-γGlu-Stearoyl])SKYLD[Aib]RRAQDFVQWLMNTKEYEK([Lys-C18 diacid])EYE-OH [Compound 4] | 87.9 | 95.4 | ≥ 1 | – |
